# According to patent publication US20150344570A1 (published 2015):
# T1: FcγRIIb extracellular domain with C-terminal His tag (human, UniProt P31994 43-217)
# T1 construct: extracellular domain; also called FcgRIIb; 2b
# T1 sequence (looked up): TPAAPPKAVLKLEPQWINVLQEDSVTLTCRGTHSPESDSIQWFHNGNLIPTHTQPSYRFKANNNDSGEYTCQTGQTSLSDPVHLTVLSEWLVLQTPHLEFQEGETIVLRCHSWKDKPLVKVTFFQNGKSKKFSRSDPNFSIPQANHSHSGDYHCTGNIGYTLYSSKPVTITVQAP
# T2: FcγRIIa R (human, UniProt P12318 34-217)
# T2 construct: extracellular domain; also called FcgRIIa R type; 2aR
# T2 sequence (looked up): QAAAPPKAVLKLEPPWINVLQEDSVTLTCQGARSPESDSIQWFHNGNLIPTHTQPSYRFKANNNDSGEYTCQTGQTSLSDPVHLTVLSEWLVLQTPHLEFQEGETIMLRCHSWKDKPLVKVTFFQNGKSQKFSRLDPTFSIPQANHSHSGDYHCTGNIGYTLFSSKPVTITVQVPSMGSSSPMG
# B1: GpH7-B3 variant P238_04F/GpL16-k0 (antibody, human IgG1, kappa)
# heavy: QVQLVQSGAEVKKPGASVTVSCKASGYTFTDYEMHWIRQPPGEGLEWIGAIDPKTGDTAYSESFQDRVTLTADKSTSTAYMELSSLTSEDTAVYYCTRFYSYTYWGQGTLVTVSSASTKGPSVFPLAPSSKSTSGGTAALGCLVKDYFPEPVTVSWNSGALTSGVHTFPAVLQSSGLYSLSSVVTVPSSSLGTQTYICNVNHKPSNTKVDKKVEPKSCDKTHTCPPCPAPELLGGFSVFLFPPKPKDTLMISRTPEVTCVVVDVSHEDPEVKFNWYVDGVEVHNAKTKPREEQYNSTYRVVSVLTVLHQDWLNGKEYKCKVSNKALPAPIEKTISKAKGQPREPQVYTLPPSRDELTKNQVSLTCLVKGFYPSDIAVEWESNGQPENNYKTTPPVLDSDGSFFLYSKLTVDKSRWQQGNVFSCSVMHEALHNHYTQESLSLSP
# light: DIVMTQSPLSLPVTPGEPASISCQASESLVHSNRNTYLHWYLQKPGQSPQLLIYKVSNRFSGVPDRFSGSGSGTDFTLKISRVEAEDVGVYYCSQNTHVPPTFGQGTKVEIERTVAAPSVFIFPPSDEQLKSGTASVVCLLNNFYPREAKVQWKVDNALQSGNSQESVTEQDSKDSTYSLSSTLTLSKADYEKHKVYACEVTHQGLSSPVTKSFNRGEC
# notes: also called Ho Ab P238_04F
# B2: GpH7-B3 variant L234_09D/GpL16-k0 (antibody, human IgG1, kappa)
# heavy: not shown
# light: B1 light
# notes: also called Ho Ab L234_09D
# B3: GpH7-B3 variant L328_02A/GpL16-k0 (antibody, human IgG1, kappa)
# heavy: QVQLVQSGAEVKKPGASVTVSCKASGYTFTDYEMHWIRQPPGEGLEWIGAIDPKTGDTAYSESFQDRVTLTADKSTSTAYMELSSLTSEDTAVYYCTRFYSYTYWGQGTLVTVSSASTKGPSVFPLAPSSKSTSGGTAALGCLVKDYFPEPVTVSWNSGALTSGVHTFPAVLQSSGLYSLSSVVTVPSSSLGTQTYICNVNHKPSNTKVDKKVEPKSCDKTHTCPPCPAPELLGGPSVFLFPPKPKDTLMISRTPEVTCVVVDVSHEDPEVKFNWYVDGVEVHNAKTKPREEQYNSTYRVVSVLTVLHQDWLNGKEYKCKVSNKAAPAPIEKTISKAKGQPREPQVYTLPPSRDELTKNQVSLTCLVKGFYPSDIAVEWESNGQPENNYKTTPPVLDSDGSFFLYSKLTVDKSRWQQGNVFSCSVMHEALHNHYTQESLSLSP
# light: B1 light
# notes: also called Ho Ab L328_02A
# B4: GpH7-B3 variant G237_08L/GpL16-k0 (antibody, human IgG1, kappa)
# heavy: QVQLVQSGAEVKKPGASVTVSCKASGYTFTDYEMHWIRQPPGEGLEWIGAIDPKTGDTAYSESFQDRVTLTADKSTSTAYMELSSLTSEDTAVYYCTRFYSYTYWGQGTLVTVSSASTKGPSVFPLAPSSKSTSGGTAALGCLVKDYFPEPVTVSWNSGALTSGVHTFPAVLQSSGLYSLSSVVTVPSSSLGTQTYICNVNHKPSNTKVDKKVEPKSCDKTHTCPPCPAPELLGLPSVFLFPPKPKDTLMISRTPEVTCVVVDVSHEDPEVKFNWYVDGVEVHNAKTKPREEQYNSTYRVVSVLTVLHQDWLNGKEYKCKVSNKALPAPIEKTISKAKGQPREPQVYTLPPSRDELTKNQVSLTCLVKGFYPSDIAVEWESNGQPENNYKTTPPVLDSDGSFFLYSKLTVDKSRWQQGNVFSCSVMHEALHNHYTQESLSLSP
# light: B1 light
# notes: also called Ho Ab G237_08L
# B5: GpH7-B3 variant N325_08L/GpL16-k0 (antibody, human IgG1, kappa)
# heavy: not shown
# light: B1 light
# notes: also called Ho Ab N325_08L
# B6: GpH7-B3 variant K326_08L/GpL16-k0 (antibody, human IgG1, kappa)
# heavy: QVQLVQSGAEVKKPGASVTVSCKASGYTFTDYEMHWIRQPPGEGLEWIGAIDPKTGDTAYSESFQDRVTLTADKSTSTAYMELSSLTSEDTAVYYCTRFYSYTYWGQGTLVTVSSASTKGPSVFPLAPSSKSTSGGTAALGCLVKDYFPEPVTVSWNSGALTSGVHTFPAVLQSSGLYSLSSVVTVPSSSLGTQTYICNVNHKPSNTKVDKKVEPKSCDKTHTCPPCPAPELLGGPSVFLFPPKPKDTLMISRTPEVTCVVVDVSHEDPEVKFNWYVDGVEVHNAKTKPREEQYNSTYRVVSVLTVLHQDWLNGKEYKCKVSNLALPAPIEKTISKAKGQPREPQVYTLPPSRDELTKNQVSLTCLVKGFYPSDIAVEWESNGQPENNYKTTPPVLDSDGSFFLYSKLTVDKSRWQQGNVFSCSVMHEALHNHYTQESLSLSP
# light: B1 light
# notes: also called Ho Ab K326_08L
# B7: GpH7-B3 variant I332_02A/GpL16-k0 (antibody, human IgG1, kappa)
# heavy: not shown
# light: B1 light
# notes: also called Ho Ab I332_02A
# B8: GpH7-B3 variant I336_08L/GpL16-k0 (antibody, human IgG1, kappa)
# heavy: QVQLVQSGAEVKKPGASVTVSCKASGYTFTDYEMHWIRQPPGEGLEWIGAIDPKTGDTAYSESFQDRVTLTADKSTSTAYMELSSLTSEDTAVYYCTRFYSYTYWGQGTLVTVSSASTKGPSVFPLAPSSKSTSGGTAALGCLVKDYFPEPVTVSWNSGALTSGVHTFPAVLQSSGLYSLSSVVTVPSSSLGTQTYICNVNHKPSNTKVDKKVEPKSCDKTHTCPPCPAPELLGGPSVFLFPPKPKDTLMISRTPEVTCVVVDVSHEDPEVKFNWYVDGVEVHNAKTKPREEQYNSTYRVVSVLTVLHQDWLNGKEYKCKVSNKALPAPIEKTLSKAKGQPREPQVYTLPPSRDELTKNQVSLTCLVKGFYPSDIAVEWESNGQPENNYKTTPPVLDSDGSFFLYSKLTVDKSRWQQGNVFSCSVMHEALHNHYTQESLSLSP
# light: B1 light
# notes: also called Ho Ab I336_08L
# B9: GpH7-B3 variant G237_06M/GpL16-k0 (antibody, human IgG1, kappa)
# heavy: not shown
# light: B1 light
# notes: also called Ho Ab G237_06M
# B10: GpH7-B3 variant G237_10E/GpL16-k0 (antibody, human IgG1, kappa)
# heavy: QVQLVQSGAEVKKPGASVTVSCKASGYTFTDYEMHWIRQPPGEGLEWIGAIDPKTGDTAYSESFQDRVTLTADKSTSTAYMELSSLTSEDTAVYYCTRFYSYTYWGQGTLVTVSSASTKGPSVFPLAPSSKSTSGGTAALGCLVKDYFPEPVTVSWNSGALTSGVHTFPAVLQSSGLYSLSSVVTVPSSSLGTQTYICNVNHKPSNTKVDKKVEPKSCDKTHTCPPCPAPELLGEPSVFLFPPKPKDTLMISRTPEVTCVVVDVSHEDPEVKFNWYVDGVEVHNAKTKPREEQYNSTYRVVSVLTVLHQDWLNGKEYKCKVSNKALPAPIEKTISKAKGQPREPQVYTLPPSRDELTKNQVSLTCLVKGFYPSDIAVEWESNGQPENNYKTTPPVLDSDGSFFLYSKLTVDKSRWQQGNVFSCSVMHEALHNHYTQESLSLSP
# light: B1 light
# notes: also called Ho Ab G237_10E
# B11: GpH7-B3 variant G237_09D/GpL16-k0 (antibody, human IgG1, kappa)
# heavy: not shown
# light: B1 light
# notes: also called Ho Ab G237_09D
# B12: GpH7-B3 variant I336_06M/GpL16-k0 (antibody, human IgG1, kappa)
# heavy: not shown
# light: B1 light
# notes: also called Ho Ab I336_06M
# B13: GpH7-B3 variant L328_13S/GpL16-k0 (antibody, human IgG1, kappa)
# heavy: not shown
# light: B1 light
# notes: also called Ho Ab L328_13S
# B14: GpH7-B3 variant A330_05P/GpL16-k0 (antibody, human IgG1, kappa)
# heavy: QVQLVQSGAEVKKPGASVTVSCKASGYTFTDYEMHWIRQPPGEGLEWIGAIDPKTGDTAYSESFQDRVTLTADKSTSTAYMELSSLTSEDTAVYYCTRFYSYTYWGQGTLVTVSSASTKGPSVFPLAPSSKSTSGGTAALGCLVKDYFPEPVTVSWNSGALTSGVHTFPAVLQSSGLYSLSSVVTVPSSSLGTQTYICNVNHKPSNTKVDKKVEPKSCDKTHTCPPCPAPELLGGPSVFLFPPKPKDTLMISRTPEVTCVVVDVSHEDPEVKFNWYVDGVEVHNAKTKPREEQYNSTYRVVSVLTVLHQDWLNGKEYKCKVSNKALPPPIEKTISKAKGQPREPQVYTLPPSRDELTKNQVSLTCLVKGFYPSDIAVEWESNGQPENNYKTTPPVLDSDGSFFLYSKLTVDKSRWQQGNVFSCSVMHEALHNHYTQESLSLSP
# light: B1 light
# notes: also called Ho Ab A330_05P
# B15: GpH7-B3 variant G237_18N/GpL16-k0 (antibody, human IgG1, kappa)
# heavy: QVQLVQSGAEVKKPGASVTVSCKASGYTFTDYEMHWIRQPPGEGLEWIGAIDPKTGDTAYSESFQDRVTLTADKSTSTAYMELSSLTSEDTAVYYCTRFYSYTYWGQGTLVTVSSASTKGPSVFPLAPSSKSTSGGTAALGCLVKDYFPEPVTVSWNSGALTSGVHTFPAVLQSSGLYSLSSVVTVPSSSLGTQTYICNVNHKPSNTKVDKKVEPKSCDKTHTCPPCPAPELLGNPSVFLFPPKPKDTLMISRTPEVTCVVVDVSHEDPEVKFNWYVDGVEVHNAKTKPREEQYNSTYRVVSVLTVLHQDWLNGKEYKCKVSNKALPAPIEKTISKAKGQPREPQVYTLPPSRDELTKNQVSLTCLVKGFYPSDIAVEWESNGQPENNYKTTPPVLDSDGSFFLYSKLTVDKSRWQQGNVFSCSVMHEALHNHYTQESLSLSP
# light: B1 light
# notes: also called Ho Ab G237_18N
# B16: GpH7-B3 variant G237_20W/GpL16-k0 (antibody, human IgG1, kappa)
# heavy: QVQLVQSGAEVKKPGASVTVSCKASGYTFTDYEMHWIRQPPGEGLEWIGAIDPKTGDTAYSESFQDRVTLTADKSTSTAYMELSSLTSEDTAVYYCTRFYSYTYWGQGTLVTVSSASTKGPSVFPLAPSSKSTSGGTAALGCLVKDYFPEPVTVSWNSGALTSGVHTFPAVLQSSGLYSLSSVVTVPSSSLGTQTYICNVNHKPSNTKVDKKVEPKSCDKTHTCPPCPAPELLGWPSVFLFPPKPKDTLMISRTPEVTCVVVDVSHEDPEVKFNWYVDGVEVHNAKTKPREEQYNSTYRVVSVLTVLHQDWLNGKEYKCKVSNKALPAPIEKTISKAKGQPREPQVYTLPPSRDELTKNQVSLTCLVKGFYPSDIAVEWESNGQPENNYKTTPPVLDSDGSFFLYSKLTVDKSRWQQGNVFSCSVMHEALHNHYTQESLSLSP
# light: B1 light
# notes: also called Ho Ab G237_20W
# B17: GpH7-B3 variant H268_03V/GpL16-k0 (antibody, human IgG1, kappa)
# heavy: not shown
# light: B1 light
# notes: also called Ho Ab H268_03V
# B18: GpH7-B3 variant L234_10E/GpL16-k0 (antibody, human IgG1, kappa)
# heavy: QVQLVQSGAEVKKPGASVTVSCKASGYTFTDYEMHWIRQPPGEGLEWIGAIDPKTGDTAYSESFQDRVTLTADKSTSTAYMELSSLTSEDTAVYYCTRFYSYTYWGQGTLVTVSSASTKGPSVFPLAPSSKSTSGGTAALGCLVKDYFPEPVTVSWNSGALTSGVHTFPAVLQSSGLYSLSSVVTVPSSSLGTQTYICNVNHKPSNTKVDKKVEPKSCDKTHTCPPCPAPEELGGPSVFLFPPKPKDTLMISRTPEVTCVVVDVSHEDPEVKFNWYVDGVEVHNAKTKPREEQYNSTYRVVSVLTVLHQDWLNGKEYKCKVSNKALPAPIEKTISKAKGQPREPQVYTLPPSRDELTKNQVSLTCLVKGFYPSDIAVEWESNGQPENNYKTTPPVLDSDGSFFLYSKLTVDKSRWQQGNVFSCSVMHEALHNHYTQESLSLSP
# light: B1 light
# notes: also called Ho Ab L234_10E
# B19: GpH7-B3 variant N325_01G/GpL16-k0 (antibody, human IgG1, kappa)
# heavy: not shown
# light: B1 light
# notes: also called Ho Ab N325_01G
# B20: GpH7-B3 variant G237_04F/GpL16-k0 (antibody, human IgG1, kappa)
# heavy: not shown
# light: B1 light
# notes: also called Ho Ab G237_04F
# B21: GpH7-B3 variant H268_15Y/GpL16-k0 (antibody, human IgG1, kappa)
# heavy: not shown
# light: B1 light
# notes: also called Ho Ab H268_15Y
# B22: GpH7-B3 variant P238_10E/GpL16-k0 (antibody, human IgG1, kappa)
# heavy: not shown
# light: B1 light
# notes: also called Ho Ab P238_10E
# B23: GpH7-B3 variant G237_13S/GpL16-k0 (antibody, human IgG1, kappa)
# heavy: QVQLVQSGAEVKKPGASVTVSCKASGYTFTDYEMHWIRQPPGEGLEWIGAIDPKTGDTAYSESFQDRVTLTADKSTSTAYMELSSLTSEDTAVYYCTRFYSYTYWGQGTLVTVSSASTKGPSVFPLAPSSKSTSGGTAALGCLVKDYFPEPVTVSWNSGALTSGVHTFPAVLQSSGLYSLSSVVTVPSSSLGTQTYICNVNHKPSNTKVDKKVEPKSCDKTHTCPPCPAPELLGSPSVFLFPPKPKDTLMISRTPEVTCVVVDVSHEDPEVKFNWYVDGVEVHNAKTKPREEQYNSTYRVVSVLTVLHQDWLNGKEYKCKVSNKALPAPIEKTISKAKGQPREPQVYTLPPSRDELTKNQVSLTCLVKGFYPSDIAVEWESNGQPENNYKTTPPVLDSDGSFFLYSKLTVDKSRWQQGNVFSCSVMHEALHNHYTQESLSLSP
# light: B1 light
# notes: also called Ho Ab G237_13S
# B24: GpH7-B3 variant G237_19Q/GpL16-k0 (antibody, human IgG1, kappa)
# heavy: not shown
# light: B1 light
# notes: also called Ho Ab G237_19Q
# B25: GpH7-A5/GpH7-B3 variant P331_04F/GpL16-k0 (antibody, human IgG1, kappa)
# heavy 1: not shown
# heavy 2: not shown
# light: B1 light
# notes: also called He Ab P331_04F
# B26: GpH7-A5/GpH7-B3 variant P331_02A/GpL16-k0 (antibody, human IgG1, kappa)
# heavy 1: not shown
# heavy 2: not shown
# light: B1 light
# notes: also called He Ab P331_02A
# B27: GpH7-A5/GpH7-B3 variant P331_03V/GpL16-k0 (antibody, human IgG1, kappa)
# heavy 1: not shown
# heavy 2: not shown
# light: B1 light
# notes: also called He Ab P331_03V
# Biological target: T1, FcγRIIb extracellular domain with …
# Experiment: SPR (Biacore), relative binding
# Protocol: Analysis of interaction between objective antibody and the FcγR was carried out using Biacore T100 (GE Healthcare). HBS-EP+ (GE Healthcare) was used as the running buffer, and the measurement temperature was set to 25° C. Chips produced by immobilizing the antigen peptide by the amine coupling method to a Series S Sencor Chip CM5 (GE Healthcare), or alternatively, chips produced by allowing preliminarily biotinylated antigen peptides to interact with and immobilize onto a Series S Sensor Chip SA (certified) (GE Healthcare) were used. Antibodies of interest were captured onto an antigen peptide-immobilized chip, and allowed to interact to each FcγR diluted with running buffer. To regenerate and repeatedly use the chip, the antibodies captured on the chip were washed off by reacting 10 mM glycine-HCl, pH 1.5.
row,Ho/Con_2b,Binder
1,209 % of HoCon Ab GpH7-B3/GpL16-k0,B1
2,68.5 % of HoCon Ab GpH7-B3/GpL16-k0,B2
3,117 % of HoCon Ab GpH7-B3/GpL16-k0,B3
4,49.4 % of HoCon Ab GpH7-B3/GpL16-k0,B4
5,106 % of HoCon Ab GpH7-B3/GpL16-k0,B5
6,168 % of HoCon Ab GpH7-B3/GpL16-k0,B6
7,81.8 % of HoCon Ab GpH7-B3/GpL16-k0,B7
8,103 % of HoCon Ab GpH7-B3/GpL16-k0,B8
9,35.3 % of HoCon Ab GpH7-B3/GpL16-k0,B9
10,17.8 % of HoCon Ab GpH7-B3/GpL16-k0,B10
11,92.9 % of HoCon Ab GpH7-B3/GpL16-k0,B11
12,90.1 % of HoCon Ab GpH7-B3/GpL16-k0,B12
13,147 % of HoCon Ab GpH7-B3/GpL16-k0,B13
14,35.3 % of HoCon Ab GpH7-B3/GpL16-k0,B14
15,63.9 % of HoCon Ab GpH7-B3/GpL16-k0,B15
16,166 % of HoCon Ab GpH7-B3/GpL16-k0,B16
17,109 % of HoCon Ab GpH7-B3/GpL16-k0,B17
18,54.9 % of HoCon Ab GpH7-B3/GpL16-k0,B18
19,20.2 % of HoCon Ab GpH7-B3/GpL16-k0,B19
20,140 % of HoCon Ab GpH7-B3/GpL16-k0,B20
21,104 % of HoCon Ab GpH7-B3/GpL16-k0,B21
22,97.9 % of HoCon Ab GpH7-B3/GpL16-k0,B22
23,25.7 % of HoCon Ab GpH7-B3/GpL16-k0,B23
24,5.3 % of HoCon Ab GpH7-B3/GpL16-k0,B24

# Biological target: T2, FcγRIIa R
# Experiment: SPR (Biacore), captured antibody, FcγR as analyte; relative binding activity
row,He/Con_2aR,Binder
1,111 % (GpH7-A5/GpH7-B3/GpL16-k0 = 100),B25
2,106 % (GpH7-A5/GpH7-B3/GpL16-k0 = 100),B26
3,114 % (GpH7-A5/GpH7-B3/GpL16-k0 = 100),B27
